Measured values reported in the supplement of paper PMC9732359.
± gives the uncertainty stated by the source.

Test: protein stability index of a GFP-peptide fusion (yeast GPS) (PSI 1-4); higher = more stable; sorted into four equal gates, so the index is relative within each strain
In short: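 Tiled 17-residue yeast protein peptides were fused downstream of GFP in a plasmid that also expresses Cherry, and the pooled library was carried in yeast. Mid-log cultures in leucine-free medium were sorted into four equal gates by GFP/Cherry fluorescence ratio, and plasmids from each gate were PCR-amplified and Illumina-sequenced, with reads assigned to strains by barcodes. The protein stability index for each peptide was each gate's read frequency times its gate number, summed.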

Row | Sequence | protein stability index (doa10∆) | protein stability index (pdr5∆) | protein stability index (san1∆) | protein stability index (ubr1∆)
1 | TEKEEAVAKAAEKKVVR [RPL17A] | 3.44 ± 0.087 | 3.35 ± 0.082 | 3.24 ± 0.053 | 3.24 ± 0.062
2 | YIYLSHETLARSSEEIN [RPN3] | 3.15 ± 0.26 |  |  | 3.15 ± 0.18
3 | HTTQIVNLEDNTQDLLL [YML103C/NUP188] | 3.21 ± 0.11 | 3.35 ± 0.12 | 3.27 ± 0.069 | 3.07 ± 0.086
4 | FEDATREQHIDTICQSI [SNF5] | 2.88 ± 0.1 | 3.21 ± 0.15 | 3.26 ± 0.066 | 3.19 ± 0.08
5 | ECQVIAAEGLCKLFLAD [YCG1] | 3.29 ± 0.066 | 3.29 ± 0.067 | 3.11 ± 0.047 | 3.25 ± 0.036
6 | GNIDTKNNILGSNVLKS [RRP43] | 2.86 ± 0.039 | 2.97 ± 0.044 | 2.92 ± 0.032 | 3.041 ± 0.027
7 | GAAANNNDQKRQQAYKT [YJL041W/NSP1] | 3.06 ± 0.063 | 3.02 ± 0.056 | 3.09 ± 0.042 | 3.22 ± 0.066
8 | PPPAPHNLHPQIGQVPL [SNF5] | 2.96 ± 0.059 | 2.94 ± 0.053 | 2.8 ± 0.045 | 3.01 ± 0.042
9 | TMLELLNQLDGFETSKN [RPT6] | 2.92 ± 0.13 | 3.13 ± 0.11 | 2.63 ± 0.2 | 2.84 ± 0.087
10 | YEGMKLGNHAITIDSVV [YMR129W/POM152] | 2.27 ± 0.094 | 1.36 ± 0.12 | 1.64 ± 0.16 | 2 ± 0.15
11 | SNNTGNTAFGNSNPTSN [YJL041W/NSP1] | 3.01 ± 0.15 | 3.19 ± 0.13 | 2.66 ± 0.15 | 
12 | KYRQTKLSKEERAARVA [RPL5] | 2.7 ± 0.11 | 3.05 ± 0.071 | 2.97 ± 0.13 | 2.65 ± 0.07
13 | DGMDAAHIEKQSLDTIG [RPO21] | 3.36 ± 0.088 | 3.29 ± 0.095 | 3.24 ± 0.093 | 3.05 ± 0.083
14 | HYERTQTKENKRCVGVI [RPN8] | 2.9 ± 0.12 | 2.69 ± 0.1 | 2.49 ± 0.093 | 2.43 ± 0.057
15 | IEMYVQEASKQYTKDEQ [RPN2] | 3.3 ± 0.084 | 3.16 ± 0.091 | 3.06 ± 0.057 | 3.31 ± 0.069
16 | IIASASYDKTVKLWEED [YGL100W/SEH1] | 3.3 ± 0.18 | 3.67 ± 0.25 | 3.22 ± 0.093 | 3.41 ± 0.12
17 | AYEEEEENEDNDGNNRT [NUT1] | 3.25 ± 0.12 | 3.37 ± 0.11 | 3.47 ± 0.15 | 3.46 ± 0.068
18 | NNYDDFMLSDDEGMESI [RRI2] | 2.54 ± 0.26 | 3.71 ± 0.19 | 3.37 ± 0.18 | 
19 | PFKFGKTSEKSENHTES [YOR098C/NUP1] | 2.94 ± 0.16 | 3.05 ± 0.14 | 3.1 ± 0.15 | 2.92 ± 0.17
20 | DSETSDPNEVEIKKLLA [DIS3] | 2.9 ± 0.075 | 3.07 ± 0.069 | 2.82 ± 0.075 | 3.27 ± 0.094
21 | DEDDDLDEDDVNADDDD [RPB4] | 3.12 ± 0.1 | 3.13 ± 0.086 | 2.09 ± 0.16 | 3 ± 0.11
22 | KKISSFKSLIDEDLLDT [YGL172W/NUP49] | 3.08 ± 0.097 | 3.21 ± 0.079 | 3.12 ± 0.062 | 3.14 ± 0.063
23 | VTLRKSLYTNTSRKALE [RPL3] | 2.66 ± 0.069 | 2.26 ± 0.059 | 1.78 ± 0.078 | 1.78 ± 0.072
24 | STVKGSVDLEKLAFGLT [TAF14] | 3.58 ± 0.13 | 3.45 ± 0.091 | 3.61 ± 0.057 | 3.67 ± 0.072
25 | PGHEMEDFLDKSYYLNT [AAR2] | 3.29 ± 0.07 | 3.1 ± 0.076 | 2.81 ± 0.065 | 3.11 ± 0.04
26 | DAWVSAAHYNRERIKRG [PRP8] | 2.76 ± 0.13 | 1.81 ± 0.099 | 2.6 ± 0.062 | 1.96 ± 0.15

Row | Sequence | protein stability index (doa10∆) | protein stability index (pdr5∆) | protein stability index (san1∆) | protein stability index (ubr1∆)
27 | TNWDDHAIIIFGYPETI [YMR153W/NUP53] | 2.45 ± 0.062 | 2.63 ± 0.048 | 2.3 ± 0.077 | 2.71 ± 0.038
28 | TPLRDEVTDKNYYYLFD [PRP8] | 2.98 ± 0.068 | 2.55 ± 0.049 | 3.03 ± 0.048 | 3.11 ± 0.059
29 | VTALEVLSLGRPNLPTH [RGR1] | 2.93 ± 0.14 |  | 2.18 ± 0.14 | 2.33 ± 0.079
30 | SDTSKPAFTFGAQKDNE [YJL041W/NSP1] | 3.32 ± 0.094 | 3.32 ± 0.087 | 3.36 ± 0.074 | 3.48 ± 0.059
31 | EGDIQVLKSYGAAPYAA [RPT1] | 2.84 ± 0.095 | 2.83 ± 0.12 | 3.05 ± 0.082 | 2.82 ± 0.063
32 | SKLLREHGYQSRGFEVM [RPB2] | 3.14 ± 0.13 | 2.71 ± 0.16 | 2.9 ± 0.14 | 2.61 ± 0.19
33 | MKESVVEINSSESDLDE [ESC2] | 3.35 ± 0.071 | 3.06 ± 0.086 | 3.06 ± 0.079 | 3.16 ± 0.068
34 | HQQQLQQPHYIQRTRER [DSN1] | 2.95 ± 0.055 | 3.08 ± 0.042 | 2.92 ± 0.037 | 2.84 ± 0.042
35 | ELTDEYLAENPDPNFEN [PRP8] | 3.45 ± 0.077 | 3.16 ± 0.076 | 3.36 ± 0.077 | 3.32 ± 0.053
36 | KNISSQLDSKLMVFNDD [YGR119C/NUP57] | 2.12 ± 0.041 | 2.54 ± 0.052 | 2.24 ± 0.056 | 2.08 ± 0.029
37 | VKSLLSEEKIRDYSKEI [SIR4] | 3.14 ± 0.3 | 2.48 ± 0.14 | 2.46 ± 0.14 | 
38 | TLLRLNELLDLTESQTE [RPN5] | 2.39 ± 0.089 | 2.18 ± 0.092 | 2.71 ± 0.11 | 2.74 ± 0.072
39 | KIHQQLLFKARLQQQQA [GAL11] | 1.3 ± 0.088 | 1.26 ± 0.089 | 1.25 ± 0.15 | 1.33 ± 0.069
40 | YLFHNDRIIHTWRTQLA [ECM29] | 1.55 ± 0.05 | 1.77 ± 0.042 | 1.47 ± 0.064 | 1.91 ± 0.039
41 | PVNTGVLHVSAKGKSGV [RRP40] | 2.48 ± 0.1 | 2.1 ± 0.097 | 2.62 ± 0.14 | 2.64 ± 0.13
42 | EDRNQRIKEMYWKLWID [FAS1] | 3.17 ± 0.13 | 3.46 ± 0.1 | 3.16 ± 0.11 | 3.08 ± 0.087
43 | KGEEAKLDSKKTVPFQV [SSN3] | 3.27 ± 0.087 | 3.37 ± 0.055 | 3.2 ± 0.097 | 3.23 ± 0.066
44 | SIKEHSTTMDGANDLGF [MED1] | 2.53 ± 0.14 | 2.8 ± 0.073 | 2.15 ± 0.28 | 2.86 ± 0.09
45 | NYEDVGRFLRVPKEGLF [BRR2] | 3.42 ± 0.076 | 3.5 ± 0.11 | 3.42 ± 0.078 | 3.49 ± 0.064
46 | SSLASQDVDFYKNLDRG [RRP6] | 1.31 ± 0.084 | 1.37 ± 0.067 |  | 1.64 ± 0.088
47 | TQAKRIFLQQFLQELLK [SWI1] | 2.62 ± 0.072 | 2.42 ± 0.092 | 2.43 ± 0.082 | 2.1 ± 0.064
48 | TNLYKLKEERAIEPETF [PUP3] | 3.16 ± 0.12 | 2.97 ± 0.13 | 3.45 ± 0.066 | 3.25 ± 0.097
49 | RSISKELIVSEEIPINS [SIR3] | 2.07 ± 0.051 | 2.09 ± 0.051 | 2.07 ± 0.07 | 1.99 ± 0.036
50 | GINKIPPKPRKVLQLLR [RPL7A] | 3.06 ± 0.087 | 3.15 ± 0.11 | 3.22 ± 0.061 | 3.15 ± 0.069
51 | DSVILASSKAVTRGISV [PRE1] | 2.14 ± 0.045 | 2.42 ± 0.048 | 2.28 ± 0.056 | 2.34 ± 0.041
52 | ESYNQNDWKLETERLIS [SIN4] | 3.4 ± 0.09 | 3.21 ± 0.14 | 3.29 ± 0.066 | 3.15 ± 0.11
